In patent publication US20110105394A1 (Novo Nordisk, published 2011):
Bridges are numbered along the chain shown (N, C = ends). The star is where a group is joined. X2 = (S)‑4‑Carboxy‑4‑(19-carboxynonadecanoylamino)butyryl, O=C(O)CCCCCCCCCCCCCCCCCCC(=O)N[C@@H](CCC(=O)*)C(=O)O

T1: Amylin 3(a) receptor (human calcitonin receptor (CTa) with RAMP-3) (human, UniProt P30988 25-474; O60896 24-148, limits assumed)
T1 sequence (looked up) 1: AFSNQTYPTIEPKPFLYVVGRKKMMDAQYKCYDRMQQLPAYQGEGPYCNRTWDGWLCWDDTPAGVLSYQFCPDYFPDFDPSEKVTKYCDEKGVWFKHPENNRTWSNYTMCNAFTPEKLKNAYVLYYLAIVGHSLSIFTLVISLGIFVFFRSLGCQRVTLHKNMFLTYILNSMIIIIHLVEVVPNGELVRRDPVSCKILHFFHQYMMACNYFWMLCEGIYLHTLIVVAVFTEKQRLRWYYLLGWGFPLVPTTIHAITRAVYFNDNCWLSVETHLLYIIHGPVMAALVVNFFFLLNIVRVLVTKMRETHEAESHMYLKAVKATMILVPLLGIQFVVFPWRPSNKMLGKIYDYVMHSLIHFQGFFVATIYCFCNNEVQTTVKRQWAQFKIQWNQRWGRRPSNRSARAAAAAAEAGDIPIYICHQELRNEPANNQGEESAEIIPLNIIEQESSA
T1 sequence (looked up) 2: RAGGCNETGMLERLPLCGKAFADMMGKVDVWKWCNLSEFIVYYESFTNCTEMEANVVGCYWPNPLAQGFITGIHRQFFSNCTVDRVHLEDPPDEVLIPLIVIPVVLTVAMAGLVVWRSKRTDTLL

B1: N-alpha-[(S)-4-Carboxy-4-(19-carboxynonadecanoylamino)butyryl]-Arg-[Gly17]-pramlintide (peptide)
peptide: X2-RKCNTATCATQRLANFLGHSSNNFGPILPPTNVGSNTY-NH2
modifications: disulfide 3-8
SMILES: CC[C@H](C)[C@H](NC(=O)[C@@H]1CCCN1C(=O)CNC(=O)[C@H](Cc1ccccc1)NC(=O)[C@H](CC(N)=O)NC(=O)[C@H](CC(N)=O)NC(=O)[C@H](CO)NC(=O)[C@H](CO)NC(=O)[C@H](Cc1c[nH]cn1)NC(=O)CNC(=O)[C@H](CC(C)C)NC(=O)[C@H](Cc1ccccc1)NC(=O)[C@H](CC(N)=O)NC(=O)[C@H](C)NC(=O)[C@H](CC(C)C)NC(=O)[C@H](CCCNC(=N)N)NC(=O)[C@H](CCC(N)=O)NC(=O)[C@@H](NC(=O)[C@H](C)NC(=O)[C@@H]1CSSC[C@H](NC(=O)[C@H](CCCCN)NC(=O)[C@H](CCCNC(=N)N)NC(=O)CC[C@H](NC(=O)CCCCCCCCCCCCCCCCCCC(=O)O)C(=O)O)C(=O)N[C@@H](CC(N)=O)C(=O)N[C@@H]([C@@H](C)O)C(=O)N[C@@H](C)C(=O)N[C@@H]([C@@H](C)O)C(=O)N1)[C@@H](C)O)C(=O)N[C@@H](CC(C)C)C(=O)N1CCC[C@H]1C(=O)N1CCC[C@H]1C(=O)N[C@H](C(=O)N[C@@H](CC(N)=O)C(=O)N[C@H](C(=O)NCC(=O)N[C@@H](CO)C(=O)N[C@@H](CC(N)=O)C(=O)N[C@H](C(=O)N[C@@H](Cc1ccc(O)cc1)C(N)=O)[C@@H](C)O)C(C)C)[C@@H](C)O
B2: N-alpha-[(S)-4-Carboxy-4-(19-carboxynonadecanoylamino)butyryl]-Arg-[Ala17]-pramlintide (peptide)
peptide: X2-RKCNTATCATQRLANFLAHSSNNFGPILPPTNVGSNTY-NH2
modifications: disulfide 3-8
SMILES: CC[C@H](C)[C@H](NC(=O)[C@@H]1CCCN1C(=O)CNC(=O)[C@H](Cc1ccccc1)NC(=O)[C@H](CC(N)=O)NC(=O)[C@H](CC(N)=O)NC(=O)[C@H](CO)NC(=O)[C@H](CO)NC(=O)[C@H](Cc1c[nH]cn1)NC(=O)[C@H](C)NC(=O)[C@H](CC(C)C)NC(=O)[C@H](Cc1ccccc1)NC(=O)[C@H](CC(N)=O)NC(=O)[C@H](C)NC(=O)[C@H](CC(C)C)NC(=O)[C@H](CCCNC(=N)N)NC(=O)[C@H](CCC(N)=O)NC(=O)[C@@H](NC(=O)[C@H](C)NC(=O)[C@@H]1CSSC[C@H](NC(=O)[C@H](CCCCN)NC(=O)[C@H](CCCNC(=N)N)NC(=O)CC[C@H](NC(=O)CCCCCCCCCCCCCCCCCCC(=O)O)C(=O)O)C(=O)N[C@@H](CC(N)=O)C(=O)N[C@@H]([C@@H](C)O)C(=O)N[C@@H](C)C(=O)N[C@@H]([C@@H](C)O)C(=O)N1)[C@@H](C)O)C(=O)N[C@@H](CC(C)C)C(=O)N1CCC[C@H]1C(=O)N1CCC[C@H]1C(=O)N[C@H](C(=O)N[C@@H](CC(N)=O)C(=O)N[C@H](C(=O)NCC(=O)N[C@@H](CO)C(=O)N[C@@H](CC(N)=O)C(=O)N[C@H](C(=O)N[C@@H](Cc1ccc(O)cc1)C(N)=O)[C@@H](C)O)C(C)C)[C@@H](C)O
B3: N-alpha-[(S)-4-Carboxy-4-(19-carboxynonadecanoylamino)butyryl]-Arg-[His17]-pramlintide (peptide)
peptide: X2-RKCNTATCATQRLANFLHHSSNNFGPILPPTNVGSNTY-NH2
modifications: disulfide 3-8
SMILES: CC[C@H](C)[C@H](NC(=O)[C@@H]1CCCN1C(=O)CNC(=O)[C@H](Cc1ccccc1)NC(=O)[C@H](CC(N)=O)NC(=O)[C@H](CC(N)=O)NC(=O)[C@H](CO)NC(=O)[C@H](CO)NC(=O)[C@H](Cc1c[nH]cn1)NC(=O)[C@H](Cc1c[nH]cn1)NC(=O)[C@H](CC(C)C)NC(=O)[C@H](Cc1ccccc1)NC(=O)[C@H](CC(N)=O)NC(=O)[C@H](C)NC(=O)[C@H](CC(C)C)NC(=O)[C@H](CCCNC(=N)N)NC(=O)[C@H](CCC(N)=O)NC(=O)[C@@H](NC(=O)[C@H](C)NC(=O)[C@@H]1CSSC[C@H](NC(=O)[C@H](CCCCN)NC(=O)[C@H](CCCNC(=N)N)NC(=O)CC[C@H](NC(=O)CCCCCCCCCCCCCCCCCCC(=O)O)C(=O)O)C(=O)N[C@@H](CC(N)=O)C(=O)N[C@@H]([C@@H](C)O)C(=O)N[C@@H](C)C(=O)N[C@@H]([C@@H](C)O)C(=O)N1)[C@@H](C)O)C(=O)N[C@@H](CC(C)C)C(=O)N1CCC[C@H]1C(=O)N1CCC[C@H]1C(=O)N[C@H](C(=O)N[C@@H](CC(N)=O)C(=O)N[C@H](C(=O)NCC(=O)N[C@@H](CO)C(=O)N[C@@H](CC(N)=O)C(=O)N[C@H](C(=O)N[C@@H](Cc1ccc(O)cc1)C(N)=O)[C@@H](C)O)C(C)C)[C@@H](C)O

molecular target: T1, Amylin 3(a) receptor (human calcitonin …); assay: cell-based or functional assay

| Potency Luciferase [nM] | Binder |
| --- | --- |
| 0.1 | B1 |
| 0.1 | B2 |
| 0.08 | B3 |
